Here are results for 38 variants from the Human Domainome abundance scans (Beltran et al. 2025).

Sequences and labels used below:
B1: POU domain, class 4, transcription factor 2, residues 256 to 327; numbered along this chain, Q12837 (parent)
chain: RDLEAFAERFKQRRIKLGVTQADVGSALANLKIPGVGSLSQSTICRFESLTLSHNNMIALKPILQAWLEEAE

± gives the uncertainty stated by the source.

In the data set the parent is B1. The experiment in a line: abundance fitness (aPCA) (normalised: wild type 0, dead -1); higher = more abundant; growth selection in yeast, the domain comes from the species named. The note with it: Homo sapiens.
Turning to RDLEAFAERDKQRRIKLGVTQADVGSALANLKIPGVGSLSQSTICRFESLTLSHNNMIALKPILQAWLEEAE [F10D], the abundance fitness is -0.823 ± 0.21.

As for RDLEAFAERFKQRRIKLGVTQADVGSALANLKIPGVGSLSQSLICRFESLTLSHNNMIALKPILQAWLEEAE [T43L], the abundance fitness is -0.053 ± 0.051. Next, RDLEAFAERFKQRRIKLGVTQADVGSALANLKIPGVGSLSQSTICRFESLTLSHNNMIALKPYLQAWLEEAE [I63Y]: -0.333 ± 0.31. With RDLEAFAERFKQRRIKLGVTQADVGSALANLKIPGVGSLSQSTICRFESLTLSHNNMIALKPRLQAWLEEAE [I63R], the abundance fitness was -0.314 ± 0.047. RDLEAFAERFKQRRIKKGVTQADVGSALANLKIPGVGSLSQSTICRFESLTLSHNNMIALKPILQAWLEEAE [L17K]: the abundance fitness is -0.286 ± 0.24. Consider RDLEAFAERFKQRRIKLGVTAADVGSALANLKIPGVGSLSQSTICRFESLTLSHNNMIALKPILQAWLEEAE [Q21A], for which the abundance fitness is -0.028 ± 0.091.

Consider RDLEAFAERFKQRRIKLGVTQADVGSALANLKIPGVGSLSQSTICRFESLTLSHNNMIAIKPILQAWLEEAE [L60I], for which the abundance fitness was 0.201 ± 0.28. On to RDLEAFAERFKQRRIKLGVTQADVGSALANLKIPGVGSLSQSTICRFESLTLSHNNMIATKPILQAWLEEAE [L60T], for which the abundance fitness is -0.436 ± 0.14. With RDLENFAERFKQRRIKLGVTQADVGSALANLKIPGVGSLSQSTICRFESLTLSHNNMIALKPILQAWLEEAE [A5N] the figure was 0.093 ± 0.18; with RDLEPFAERFKQRRIKLGVTQADVGSALANLKIPGVGSLSQSTICRFESLTLSHNNMIALKPILQAWLEEAE [A5P], -0.277 ± 0.14; with RDLEAFAERFKQRRIKLGVTQAMVGSALANLKIPGVGSLSQSTICRFESLTLSHNNMIALKPILQAWLEEAE [D23M], -0.189 ± 0.17. For the variant RDLEAFAERFKQRRIKLGVTQADVGSALANLKIPGVGSLSQSTILRFESLTLSHNNMIALKPILQAWLEEAE [C45L], the abundance fitness was -0.157 ± 0.057.

As for RDLEAFAQRFKQRRIKLGVTQADVGSALANLKIPGVGSLSQSTICRFESLTLSHNNMIALKPILQAWLEEAE [E8Q], the abundance fitness was -0.091 ± 0.079. With RDLEAFAERFKQRRIKLGVTQADVGSALANLKIPGVGSPSQSTICRFESLTLSHNNMIALKPILQAWLEEAE [L39P] the figure was -0.258 ± 0.075; with LDLEAFAERFKQRRIKLGVTQADVGSALANLKIPGVGSLSQSTICRFESLTLSHNNMIALKPILQAWLEEAE [R1L], -0.354 ± 0.2. Next, GDLEAFAERFKQRRIKLGVTQADVGSALANLKIPGVGSLSQSTICRFESLTLSHNNMIALKPILQAWLEEAE [R1G]: 0.055 ± 0.078; RDLEAFAERFKQRRIKLGVTQADTGSALANLKIPGVGSLSQSTICRFESLTLSHNNMIALKPILQAWLEEAE [V24T]: -0.948 ± 0.17; RDLEAFAERFKQRRIKLGVTQADVGSALANLKIPGVGSLSQSTICRFESLTLSHNNMIVLKPILQAWLEEAE [A59V]: -0.207 ± 0.074.

Turning to RDLEAFAERFKQRRIKLGVTQADVGSALANLKIPGVGSLSQSTICRFESLTLSHNNMIALKPILQAWLEVAE [E70V], the abundance fitness was -0.186 ± 0.082. Next, RDLEAFAERFKQRRIKLGVAQADVGSALANLKIPGVGSLSQSTICRFESLTLSHNNMIALKPILQAWLEEAE [T20A]: -0.195 ± 0.053. Consider RDLEAFAERFKQRRIKLGVTQADVGSALANLKIPGVGSLSQSTICRFESLTLSHWNMIALKPILQAWLEEAE [N55W], for which the abundance fitness is -0.403 ± 0.083. Next, RDLEAFAENFKQRRIKLGVTQADVGSALANLKIPGVGSLSQSTICRFESLTLSHNNMIALKPILQAWLEEAE [R9N]: -0.005 ± 0.19; RDLEAFAEMFKQRRIKLGVTQADVGSALANLKIPGVGSLSQSTICRFESLTLSHNNMIALKPILQAWLEEAE [R9M]: 0.095 ± 0.13. Next, RDLEAFAERFKQRRIKLGVTQADVGSALANLKIPGVGSLSQSTICRFESLTLSHNNWIALKPILQAWLEEAE [M57W]: -0.374 ± 0.075; RDLEAFAERFKQRRIKLGVTQADVGSALANLKIPGVGSLSQSTICRFESLTLSHNNAIALKPILQAWLEEAE [M57A]: -0.306 ± 0.13; RDLEAFAERFKQRRIKLGVTQADVGSALANLKIPGVGSLSQSTICRFESLTLSHNNPIALKPILQAWLEEAE [M57P]: -0.924 ± 0.11. With RDLEAFAERFKQRRIKLGVTQADVGSALANLKIPGVGSLSQSTICRFESLTLSHNNCIALKPILQAWLEEAE [M57C] the figure was -0.251 ± 0.11; with RDLEAFAERFKQRRIKLGVTQADVGSALANLKIPGVGSLTQSTICRFESLTLSHNNMIALKPILQAWLEEAE [S40T], 0.092 ± 0.1; with RDLEAFAERFKQRRIKLGVTQADVGSALANCKIPGVGSLSQSTICRFESLTLSHNNMIALKPILQAWLEEAE [L31C], -0.102 ± 0.31. RDQEAFAERFKQRRIKLGVTQADVGSALANLKIPGVGSLSQSTICRFESLTLSHNNMIALKPILQAWLEEAE [L3Q]: the abundance fitness was -0.437 ± 0.078. With RDLEAFAERFKQRRIKLGVTQADVGSALANLKIPGVGSLSQSTICRFESLTLSHNNMIALKPILQAWLEEFE [A71F] the figure was -0.02 ± 0.15. Next, RDLEAFAERFKQRRIKLGVTQADVGSALANLKIPGVGSLSQSTICRFESLTLSHNNMIALKPIQQAWLEEAE [L64Q]: -0.75 ± 0.17; RDLEAFAERFKQRRIKLGVTQADVGSALANLNIPGVGSLSQSTICRFESLTLSHNNMIALKPILQAWLEEAE [K32N]: 0.189 ± 0.3; RDLEAFAERFKQRRIKLGVTQADVGSALANLKIPGVGSLSQSTICKFESLTLSHNNMIALKPILQAWLEEAE [R46K]: 0.033 ± 0.12. Next, RDLEAFAERFKQRRIKLGVTQADVGSALANLKIPGVGSLSQSTICPFESLTLSHNNMIALKPILQAWLEEAE [R46P]: -1.01 ± 0.13; RDLEAFAERFKQRRIKLGVTQADVGSALANLKIPGVGSLSQSTMCRFESLTLSHNNMIALKPILQAWLEEAE [I44M]: -0.87 ± 0.18; RDLEAFAERFKQRRIKLGVTQADVGSALANLKIPGVGSLSQSTCCRFESLTLSHNNMIALKPILQAWLEEAE [I44C]: -0.643 ± 0.33.

For RDLEAFAERFKQRRIKLGVTQADVGSALANLKIPGVGSLSQSTECRFESLTLSHNNMIALKPILQAWLEEAE [I44E], the abundance fitness was -0.652 ± 0.37.
